# Non-standard residues stand in square brackets, D forms with d.
# Tests used:
# [1] = molecular target: T1, integrin αVβ3 ectodomain (soluble) (human, UniProt P06756;P05106); test: fluorescence polarisation; competition with 10 nM FITC-cyclic-… binding to soluble integrin ectodomains in solution (50 nM α5β1, 200 nM αVβ1, 20 nM αVβ3, 20 nM αVβ5); global three-parameter dose-response fit; settings: both partners purified
# T1 construct: human integrin αV ectodomain; N-terminal secretion peptide and HRV3C digestion site in the construct; human integrin β3 ectodomain; source: Expi293F, transiently transfected, purified from culture supernatant (Ni-NTA, size-exclusion chromatography)
# [2] = molecular target: T2, integrin α5β1 ectodomain (soluble) (human, UniProt P08648;P05556); test: as above; settings: both partners purified
# T2 construct: human integrin α5 ectodomain; N-terminal secretion peptide and HRV3C digestion site in the construct; human integrin β1 ectodomain; source: Expi293F, transiently transfected, purified from culture supernatant (Ni-NTA, size-exclusion chromatography)
# [3] = molecular target: T3, integrin α5β1, intact, on wild type K562 cells (human (endogenous in K562), UniProt P08648;P05556); test: flow cytometry on cells; intact integrins on K562 cells in L15 medium with 1% BSA, without Mn2+, no washing; titrator's binding read as enhancement of binding of fluorescent 9EG7 Fab (10 nM); EC50 of a three-parameter dose-response fit taken as Kd; settings: one partner purified
# T3 construct: integrin α5 subunit, natively expressed on K562 cells; integrin β1 subunit, natively expressed on K562 cells; also called K562 WT (α5β1); K562 WT; source: endogenous, on wild type K562 cells
# [4] = molecular target: T4, integrin αVβ1, intact, on K562 αVβ1 stable transfectants (human, UniProt P06756;P05556); test: as above; settings: one partner purified
# T4 construct: integrin αV subunit; integrin β1 subunit; the cells also express native α5β1, whose share the legend calls negligible
# [5] = molecular target: T3, integrin α5β1, intact, on wild type …; test: flow cytometry on cells; intact integrins on K562 cells in L15 medium with 1% BSA and 1 mM Mn2+, no washing; titrator's binding read as enhancement of binding of AF647-9EG7 Fab (10 nM); EC50 of a three-parameter dose-response fit taken as Kd; settings: one partner purified
# [6] = molecular target: T4, integrin αVβ1, intact, on K562 αVβ1 …; test: as above; settings: one partner purified
# [7] = molecular target: T5, integrin α5β1, intact, on wild type K562 cells (human (endogenous in K562), UniProt P08648 42-1049; P05556 21-798); test: as above; settings: one partner purified
# T5 construct: integrin α5 subunit, natively expressed on K562 cells; integrin β1 subunit, natively expressed on K562 cells; also called K562 WT (α5β1); K562 WT; source: endogenous, on wild type K562 cells
# [8] = molecular target: T6, integrin α5β1 ectodomain (soluble) (human, UniProt P08648 42-995; P05556 21-728); test: fluorescence polarisation; competition with 10 nM FITC-cyclic-… binding to soluble integrin ectodomains in solution (50 nM α5β1, 200 nM αVβ1, 20 nM αVβ3, 20 nM αVβ5); global three-parameter dose-response fit; settings: both partners purified
# T6 construct: human integrin α5 ectodomain; N-terminal secretion peptide and HRV3C digestion site in the construct; human integrin β1 ectodomain; source: Expi293F, transiently transfected, purified from culture supernatant (Ni-NTA, size-exclusion chromatography)
# [9] = molecular target: T5, integrin α5β1, intact, on wild type …; test: flow cytometry on cells; intact integrins on K562 cells in L15 medium with 1% BSA, without Mn2+, no washing; titrator's binding read as enhancement of binding of fluorescent 9EG7 Fab (10 nM); EC50 of a three-parameter dose-response fit taken as Kd; settings: one partner purified
# T3 sequence (P08648 42-1049, chain 1 of 2): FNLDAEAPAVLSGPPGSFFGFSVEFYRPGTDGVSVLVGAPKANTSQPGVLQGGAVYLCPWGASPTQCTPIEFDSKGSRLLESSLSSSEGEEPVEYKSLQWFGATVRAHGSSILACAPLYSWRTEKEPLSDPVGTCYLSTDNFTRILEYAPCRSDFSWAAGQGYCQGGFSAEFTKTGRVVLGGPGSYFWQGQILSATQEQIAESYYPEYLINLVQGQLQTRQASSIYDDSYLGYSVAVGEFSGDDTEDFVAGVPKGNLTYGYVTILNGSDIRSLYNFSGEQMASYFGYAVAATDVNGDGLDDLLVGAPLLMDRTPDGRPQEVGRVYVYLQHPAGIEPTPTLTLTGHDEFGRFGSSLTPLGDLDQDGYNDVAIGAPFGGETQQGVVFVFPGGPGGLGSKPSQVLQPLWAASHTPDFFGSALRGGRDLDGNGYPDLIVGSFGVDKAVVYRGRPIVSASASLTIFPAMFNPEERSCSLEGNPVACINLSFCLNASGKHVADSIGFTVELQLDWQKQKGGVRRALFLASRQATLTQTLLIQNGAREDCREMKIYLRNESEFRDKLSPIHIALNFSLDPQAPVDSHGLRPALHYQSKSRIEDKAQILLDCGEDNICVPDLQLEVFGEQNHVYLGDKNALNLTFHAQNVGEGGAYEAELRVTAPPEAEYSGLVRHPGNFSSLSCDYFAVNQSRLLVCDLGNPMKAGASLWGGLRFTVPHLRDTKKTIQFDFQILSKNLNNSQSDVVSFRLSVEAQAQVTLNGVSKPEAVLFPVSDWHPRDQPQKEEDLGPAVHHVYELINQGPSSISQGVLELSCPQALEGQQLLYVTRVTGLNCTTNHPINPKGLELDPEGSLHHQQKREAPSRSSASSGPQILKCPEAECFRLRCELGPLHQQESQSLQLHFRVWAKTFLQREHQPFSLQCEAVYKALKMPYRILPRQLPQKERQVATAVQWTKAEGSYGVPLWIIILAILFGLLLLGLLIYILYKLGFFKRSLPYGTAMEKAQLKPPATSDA
# T3 sequence (P05556 21-798, chain 2 of 2): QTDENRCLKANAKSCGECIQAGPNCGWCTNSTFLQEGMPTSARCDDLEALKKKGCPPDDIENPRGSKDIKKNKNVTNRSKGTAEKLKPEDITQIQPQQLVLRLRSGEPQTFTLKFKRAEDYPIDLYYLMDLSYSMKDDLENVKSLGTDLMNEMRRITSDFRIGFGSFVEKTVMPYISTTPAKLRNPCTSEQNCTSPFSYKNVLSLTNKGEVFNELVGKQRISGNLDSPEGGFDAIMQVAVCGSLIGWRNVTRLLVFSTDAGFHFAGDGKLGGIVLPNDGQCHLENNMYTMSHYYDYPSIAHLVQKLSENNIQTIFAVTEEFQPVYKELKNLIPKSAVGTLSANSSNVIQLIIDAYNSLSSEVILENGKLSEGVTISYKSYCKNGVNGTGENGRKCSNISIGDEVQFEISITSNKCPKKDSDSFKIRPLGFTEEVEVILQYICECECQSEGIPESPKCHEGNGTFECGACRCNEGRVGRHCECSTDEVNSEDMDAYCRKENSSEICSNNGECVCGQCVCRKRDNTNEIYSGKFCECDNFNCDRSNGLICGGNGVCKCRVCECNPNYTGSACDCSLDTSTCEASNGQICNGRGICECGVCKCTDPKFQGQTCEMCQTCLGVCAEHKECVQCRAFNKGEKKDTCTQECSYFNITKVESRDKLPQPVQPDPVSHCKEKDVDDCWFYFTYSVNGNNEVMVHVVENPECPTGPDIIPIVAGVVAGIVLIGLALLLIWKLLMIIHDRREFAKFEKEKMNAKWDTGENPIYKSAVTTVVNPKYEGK
# T5 sequence (P08648 42-1049, chain 1 of 2): as the sequence (P08648 42-1049, chain 1 of 2) above
# T5 sequence (P05556 21-798, chain 2 of 2): as the sequence (P05556 21-798, chain 2 of 2) above
# T4 sequence (P06756 31-1048, chain 1 of 2): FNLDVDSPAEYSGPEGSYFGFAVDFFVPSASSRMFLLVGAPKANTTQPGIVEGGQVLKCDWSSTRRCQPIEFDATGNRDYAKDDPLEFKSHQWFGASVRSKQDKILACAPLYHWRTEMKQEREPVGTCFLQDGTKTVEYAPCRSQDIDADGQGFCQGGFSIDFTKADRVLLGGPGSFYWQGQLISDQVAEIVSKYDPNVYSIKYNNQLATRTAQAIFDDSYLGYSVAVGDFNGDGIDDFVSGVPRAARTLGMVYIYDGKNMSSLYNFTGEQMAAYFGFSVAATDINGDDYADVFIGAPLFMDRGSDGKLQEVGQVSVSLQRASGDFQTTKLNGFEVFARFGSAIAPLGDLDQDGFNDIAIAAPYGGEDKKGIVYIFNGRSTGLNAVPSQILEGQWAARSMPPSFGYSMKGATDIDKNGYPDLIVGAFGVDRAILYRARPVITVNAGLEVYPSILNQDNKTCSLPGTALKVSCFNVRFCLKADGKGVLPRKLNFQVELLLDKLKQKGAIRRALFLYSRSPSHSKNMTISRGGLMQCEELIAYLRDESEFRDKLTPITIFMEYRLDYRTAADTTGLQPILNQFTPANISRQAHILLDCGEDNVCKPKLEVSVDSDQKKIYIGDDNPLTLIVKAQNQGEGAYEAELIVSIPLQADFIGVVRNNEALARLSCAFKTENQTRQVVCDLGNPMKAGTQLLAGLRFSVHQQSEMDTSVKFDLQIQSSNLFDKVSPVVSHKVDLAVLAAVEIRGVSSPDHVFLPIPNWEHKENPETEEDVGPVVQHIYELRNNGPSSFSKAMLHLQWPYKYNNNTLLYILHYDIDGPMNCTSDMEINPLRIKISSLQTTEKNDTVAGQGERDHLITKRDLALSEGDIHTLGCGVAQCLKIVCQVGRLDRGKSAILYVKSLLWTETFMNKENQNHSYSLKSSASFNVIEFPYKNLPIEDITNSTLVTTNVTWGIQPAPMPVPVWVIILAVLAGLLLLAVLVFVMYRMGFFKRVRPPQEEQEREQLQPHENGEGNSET
# T4 sequence (P05556 21-798, chain 2 of 2): as the sequence (P05556 21-798, chain 2 of 2) above
# T1 sequence (P06756 31-992, chain 1 of 2): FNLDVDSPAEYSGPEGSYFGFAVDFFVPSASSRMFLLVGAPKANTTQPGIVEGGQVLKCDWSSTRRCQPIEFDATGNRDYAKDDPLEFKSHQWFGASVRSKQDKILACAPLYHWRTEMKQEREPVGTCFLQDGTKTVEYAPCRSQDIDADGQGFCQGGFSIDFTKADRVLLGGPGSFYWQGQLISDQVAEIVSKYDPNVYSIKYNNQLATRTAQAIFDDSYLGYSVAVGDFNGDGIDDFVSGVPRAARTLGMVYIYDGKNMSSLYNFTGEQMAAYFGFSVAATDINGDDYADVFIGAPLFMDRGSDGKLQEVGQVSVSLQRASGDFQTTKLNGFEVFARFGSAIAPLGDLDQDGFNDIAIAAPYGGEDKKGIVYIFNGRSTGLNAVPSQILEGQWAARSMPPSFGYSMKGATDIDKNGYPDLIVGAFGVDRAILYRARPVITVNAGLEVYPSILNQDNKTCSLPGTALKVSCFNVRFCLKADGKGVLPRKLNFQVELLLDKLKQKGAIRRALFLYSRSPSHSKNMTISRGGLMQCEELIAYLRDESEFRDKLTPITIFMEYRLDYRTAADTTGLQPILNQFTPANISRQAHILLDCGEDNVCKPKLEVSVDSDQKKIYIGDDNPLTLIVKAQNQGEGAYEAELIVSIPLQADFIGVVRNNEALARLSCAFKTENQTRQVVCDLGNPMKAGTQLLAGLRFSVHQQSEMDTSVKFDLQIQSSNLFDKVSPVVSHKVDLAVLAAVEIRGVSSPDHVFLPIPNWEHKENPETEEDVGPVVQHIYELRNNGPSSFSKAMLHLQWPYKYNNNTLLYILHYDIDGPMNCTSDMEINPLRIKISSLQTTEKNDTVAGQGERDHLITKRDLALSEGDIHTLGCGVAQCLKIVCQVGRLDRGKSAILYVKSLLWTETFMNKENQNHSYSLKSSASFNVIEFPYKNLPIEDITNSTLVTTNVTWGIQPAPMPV
# T1 sequence (P05106 27-718, chain 2 of 2): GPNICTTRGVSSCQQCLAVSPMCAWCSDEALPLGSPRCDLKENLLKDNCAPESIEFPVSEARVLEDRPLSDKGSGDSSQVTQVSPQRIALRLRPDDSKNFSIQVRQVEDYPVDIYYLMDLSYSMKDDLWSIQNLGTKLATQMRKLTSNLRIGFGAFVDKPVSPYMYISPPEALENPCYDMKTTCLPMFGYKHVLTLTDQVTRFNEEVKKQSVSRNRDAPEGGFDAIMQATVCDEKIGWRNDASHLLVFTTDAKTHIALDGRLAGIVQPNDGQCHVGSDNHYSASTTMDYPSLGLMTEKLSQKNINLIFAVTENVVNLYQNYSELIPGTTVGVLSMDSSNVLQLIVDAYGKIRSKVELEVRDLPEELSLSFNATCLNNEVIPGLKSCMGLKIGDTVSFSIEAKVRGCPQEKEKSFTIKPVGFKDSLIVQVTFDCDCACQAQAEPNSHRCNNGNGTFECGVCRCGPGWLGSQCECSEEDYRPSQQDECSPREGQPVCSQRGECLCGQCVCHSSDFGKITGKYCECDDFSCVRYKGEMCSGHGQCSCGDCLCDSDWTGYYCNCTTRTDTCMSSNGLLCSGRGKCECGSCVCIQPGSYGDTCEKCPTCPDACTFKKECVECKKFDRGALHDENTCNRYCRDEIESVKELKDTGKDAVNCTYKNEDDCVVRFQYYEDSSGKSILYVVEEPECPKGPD
Binder,IC50 [1] [µM],IC50 [2] [µM],Kd [3] [µM],Kd [4] [µM],Kd [5] [µM],Kd [6] [µM],Kd [7] [µM],IC50 [8] [µM],Kd [9] [µM]
"Biogen-αVβ1.5 Fab (Fab, V domains shown, heavy chain before CDR3; heavy-chain CDR3 (RGD motif highlighted); heavy chain after CDR3 up to the papain cut (IgG1); light chain; Expressed as IgG1 and cut to Fab with papain; also called Exemplary Antibody 5; anti-αVβ1; source: Expi293F, recombinantly expressed as IgG1; Fab generated with papain, purified (Hi-Trap Q)) VH: EVQLVESGGGVVQPGRSLRLSCAASGFTFKYYGMHWVRQAPGKGLEWVASIWYDGSNKKYADSVKGRFTISRDNSKNTLYLQMNSLRAEDTAVYYCARGGPTRGDGTRVYYYGMDVWGQGTTVTVSS VL: EIVMTQSPATLSVSPGERATLSCRASQSVSSNLAWYQQKPGQAPRLLIYSASTRATGIPARFSGSGSGTEFTLTISSLQSEDFAVYYCQQYYHHPFTFGGGTKVEIK",21 ± 3,0.2 ± 0.1,19,0.117,4.3,0.0236,–,–,–
"cyclo(RGD[dF]K) (cyclic pentapeptide, a cilengitide analog; f = D-Phe; Unlabelled soluble peptide used as titrator) [cRGDfK peptide, cyclo[Arg-Gly-Asp-D-Phe-Lys]]",–,–,–,–,–,–,11,1.2 ± 0.5,610

# — publication PMC9719539 (Nature Communications, 2022)
